One molecule from US20260184748A1 (University of Pennsylvania, published 2026) can be followed below.

What all share (experiment): cell-based or functional assay
Assay [1] addresses MC1R (UniProt Q01726 1-317).
In assay [2] the target is MLNR (UniProt O43193 1-412).
Assay [3] addresses OPRM1 (UniProt P35372 1-400).
The target of assay [4] is T1, P2RY11 (UniProt Q96G91 1-374).
T1 sequence (looked up): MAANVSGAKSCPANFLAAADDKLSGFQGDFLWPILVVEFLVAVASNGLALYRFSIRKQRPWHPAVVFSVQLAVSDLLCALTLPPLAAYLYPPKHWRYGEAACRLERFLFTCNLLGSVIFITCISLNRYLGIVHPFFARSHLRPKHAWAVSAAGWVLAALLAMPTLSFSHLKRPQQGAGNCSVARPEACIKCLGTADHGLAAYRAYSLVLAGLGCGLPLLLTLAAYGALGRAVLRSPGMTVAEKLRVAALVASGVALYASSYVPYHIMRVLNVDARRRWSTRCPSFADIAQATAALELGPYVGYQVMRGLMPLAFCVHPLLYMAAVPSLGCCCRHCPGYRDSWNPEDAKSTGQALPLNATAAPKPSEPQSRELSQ

For assay [5], the target named is PTGER4 (UniProt P35408 1-488).
Chain of PTGER4 (P35408 whole entry): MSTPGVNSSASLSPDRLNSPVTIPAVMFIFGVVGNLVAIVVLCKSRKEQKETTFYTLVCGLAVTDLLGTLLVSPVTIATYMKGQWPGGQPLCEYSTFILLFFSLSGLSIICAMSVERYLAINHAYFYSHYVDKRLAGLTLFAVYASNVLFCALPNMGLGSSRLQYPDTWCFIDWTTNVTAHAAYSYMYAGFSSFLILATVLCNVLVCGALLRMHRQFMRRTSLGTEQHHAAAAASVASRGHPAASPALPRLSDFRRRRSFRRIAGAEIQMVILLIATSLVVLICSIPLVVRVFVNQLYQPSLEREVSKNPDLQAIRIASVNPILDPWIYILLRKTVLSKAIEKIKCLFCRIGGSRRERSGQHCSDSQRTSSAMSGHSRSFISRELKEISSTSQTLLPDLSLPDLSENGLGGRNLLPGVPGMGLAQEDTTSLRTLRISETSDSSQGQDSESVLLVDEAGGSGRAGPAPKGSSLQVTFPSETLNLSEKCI
Assay [6] concerns the target T2, CCKAR (UniProt P32238 1-428).
T2 sequence (looked up): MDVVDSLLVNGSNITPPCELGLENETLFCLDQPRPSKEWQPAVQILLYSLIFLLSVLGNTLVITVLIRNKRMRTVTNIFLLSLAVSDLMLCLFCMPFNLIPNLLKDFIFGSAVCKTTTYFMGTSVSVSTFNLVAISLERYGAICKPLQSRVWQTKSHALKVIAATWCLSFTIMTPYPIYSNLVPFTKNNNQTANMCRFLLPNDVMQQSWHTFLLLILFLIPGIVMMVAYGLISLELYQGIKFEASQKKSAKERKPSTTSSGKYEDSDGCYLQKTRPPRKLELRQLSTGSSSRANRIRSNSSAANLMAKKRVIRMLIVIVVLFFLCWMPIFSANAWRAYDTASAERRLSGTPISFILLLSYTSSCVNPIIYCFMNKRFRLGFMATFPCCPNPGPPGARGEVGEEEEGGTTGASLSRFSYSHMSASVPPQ

Assay [7] addresses T3, CHRM1 (UniProt P11229 1-460).
T3 sequence (looked up): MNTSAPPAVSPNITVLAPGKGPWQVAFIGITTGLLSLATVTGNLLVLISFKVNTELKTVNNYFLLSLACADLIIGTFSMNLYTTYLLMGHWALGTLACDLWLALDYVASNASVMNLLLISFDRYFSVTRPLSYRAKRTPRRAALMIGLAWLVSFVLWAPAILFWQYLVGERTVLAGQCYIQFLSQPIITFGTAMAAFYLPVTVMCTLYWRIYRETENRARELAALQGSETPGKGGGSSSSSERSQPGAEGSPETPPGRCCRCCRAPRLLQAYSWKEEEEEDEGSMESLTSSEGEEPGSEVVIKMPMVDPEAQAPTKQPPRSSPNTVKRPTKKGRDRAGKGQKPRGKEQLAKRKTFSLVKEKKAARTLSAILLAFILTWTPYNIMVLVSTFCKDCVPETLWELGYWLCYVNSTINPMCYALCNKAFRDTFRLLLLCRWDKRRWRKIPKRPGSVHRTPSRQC

In assay [8] the target is T4, CMKLR1 (UniProt Q99788 1-373, limits assumed).
T4 sequence (looked up): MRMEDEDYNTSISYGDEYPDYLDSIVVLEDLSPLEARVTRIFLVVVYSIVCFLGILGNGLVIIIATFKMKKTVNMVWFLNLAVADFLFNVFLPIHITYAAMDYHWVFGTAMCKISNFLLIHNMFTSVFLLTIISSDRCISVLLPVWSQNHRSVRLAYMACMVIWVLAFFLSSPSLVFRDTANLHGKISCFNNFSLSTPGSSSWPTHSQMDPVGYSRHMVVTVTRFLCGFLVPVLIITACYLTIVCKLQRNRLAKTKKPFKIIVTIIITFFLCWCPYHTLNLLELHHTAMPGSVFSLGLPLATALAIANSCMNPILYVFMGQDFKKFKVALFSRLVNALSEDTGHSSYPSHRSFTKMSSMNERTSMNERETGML

Assay [9] deals with T5, FSHR (UniProt P23945 18-695).
T5 sequence (looked up): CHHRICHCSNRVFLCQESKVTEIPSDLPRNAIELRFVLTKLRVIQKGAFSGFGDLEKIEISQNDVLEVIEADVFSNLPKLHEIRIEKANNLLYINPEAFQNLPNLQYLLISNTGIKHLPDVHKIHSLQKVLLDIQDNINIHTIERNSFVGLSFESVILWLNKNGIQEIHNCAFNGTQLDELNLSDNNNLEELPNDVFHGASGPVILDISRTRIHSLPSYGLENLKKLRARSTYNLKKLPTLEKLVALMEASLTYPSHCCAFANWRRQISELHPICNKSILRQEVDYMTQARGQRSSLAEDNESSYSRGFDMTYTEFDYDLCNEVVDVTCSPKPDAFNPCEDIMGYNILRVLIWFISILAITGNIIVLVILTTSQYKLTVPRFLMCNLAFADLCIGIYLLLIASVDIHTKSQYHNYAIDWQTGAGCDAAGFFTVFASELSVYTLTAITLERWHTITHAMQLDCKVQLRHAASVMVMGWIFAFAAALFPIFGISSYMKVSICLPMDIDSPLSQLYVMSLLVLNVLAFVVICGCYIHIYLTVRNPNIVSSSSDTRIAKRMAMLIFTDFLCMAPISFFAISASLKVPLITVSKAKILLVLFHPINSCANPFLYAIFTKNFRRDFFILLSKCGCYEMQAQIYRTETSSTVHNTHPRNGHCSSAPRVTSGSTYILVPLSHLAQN

Where no end group is shown, it is not given here.

Chain of OPRM1 (P35372 whole entry): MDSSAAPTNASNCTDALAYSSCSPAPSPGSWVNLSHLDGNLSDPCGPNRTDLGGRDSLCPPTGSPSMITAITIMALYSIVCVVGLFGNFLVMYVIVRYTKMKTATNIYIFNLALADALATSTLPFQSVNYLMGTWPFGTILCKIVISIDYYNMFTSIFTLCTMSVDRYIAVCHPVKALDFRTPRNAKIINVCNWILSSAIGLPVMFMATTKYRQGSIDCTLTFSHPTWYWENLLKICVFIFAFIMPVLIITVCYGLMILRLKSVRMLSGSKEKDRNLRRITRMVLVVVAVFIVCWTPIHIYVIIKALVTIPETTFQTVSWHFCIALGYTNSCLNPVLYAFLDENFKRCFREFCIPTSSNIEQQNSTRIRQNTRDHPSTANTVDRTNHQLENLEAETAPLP
Chain of MLNR (O43193 whole entry): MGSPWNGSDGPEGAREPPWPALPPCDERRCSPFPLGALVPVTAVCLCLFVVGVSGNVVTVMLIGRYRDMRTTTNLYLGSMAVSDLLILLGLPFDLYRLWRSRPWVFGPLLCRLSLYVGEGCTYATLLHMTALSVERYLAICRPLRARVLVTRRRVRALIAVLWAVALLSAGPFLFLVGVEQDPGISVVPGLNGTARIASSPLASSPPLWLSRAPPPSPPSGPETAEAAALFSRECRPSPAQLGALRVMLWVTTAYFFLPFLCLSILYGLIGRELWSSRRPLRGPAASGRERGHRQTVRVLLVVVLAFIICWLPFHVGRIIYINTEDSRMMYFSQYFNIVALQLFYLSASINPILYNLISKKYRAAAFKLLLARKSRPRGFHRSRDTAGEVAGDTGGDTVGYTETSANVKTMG
Chain of MC1R (Q01726 whole entry): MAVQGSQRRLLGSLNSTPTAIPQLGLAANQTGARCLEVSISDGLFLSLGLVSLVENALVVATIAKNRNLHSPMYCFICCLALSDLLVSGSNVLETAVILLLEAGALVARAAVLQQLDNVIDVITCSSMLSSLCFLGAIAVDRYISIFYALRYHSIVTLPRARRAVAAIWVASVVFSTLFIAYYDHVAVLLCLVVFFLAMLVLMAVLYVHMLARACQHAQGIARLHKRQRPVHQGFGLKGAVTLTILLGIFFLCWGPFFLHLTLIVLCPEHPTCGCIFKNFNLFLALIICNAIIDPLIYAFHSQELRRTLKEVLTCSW

Consider QATVGDVNTDRPGLLDLK (also: synthesised on Rink amide resin, C-terminal amide not given here outright) [octadecaneuropeptide (ODN)], for which the “% Activity, arrestin, antagonist mode, 2.5 uM” value in assay [1] is 0.4%; in assay [2], -5.5%; in [3], -21.1%; in assay [4], -5.6%; in [5], -15.1%; in assay [6], -17.2%. Besides, the entries for the “% Activity, arrestin, antagonist mode, 2.5 uM” value in assay [7], in assay [8] and in [9] were 9.3%, -18.3% and -16.9%, respectively.
